Where two headings read alike, the source gives them in different places.
Assays:
[1] = biological target: T1, chimera leptin receptor (ObR-Fc) (UniProt P48356 22-839); assay: SPR
T1 sequence (looked up): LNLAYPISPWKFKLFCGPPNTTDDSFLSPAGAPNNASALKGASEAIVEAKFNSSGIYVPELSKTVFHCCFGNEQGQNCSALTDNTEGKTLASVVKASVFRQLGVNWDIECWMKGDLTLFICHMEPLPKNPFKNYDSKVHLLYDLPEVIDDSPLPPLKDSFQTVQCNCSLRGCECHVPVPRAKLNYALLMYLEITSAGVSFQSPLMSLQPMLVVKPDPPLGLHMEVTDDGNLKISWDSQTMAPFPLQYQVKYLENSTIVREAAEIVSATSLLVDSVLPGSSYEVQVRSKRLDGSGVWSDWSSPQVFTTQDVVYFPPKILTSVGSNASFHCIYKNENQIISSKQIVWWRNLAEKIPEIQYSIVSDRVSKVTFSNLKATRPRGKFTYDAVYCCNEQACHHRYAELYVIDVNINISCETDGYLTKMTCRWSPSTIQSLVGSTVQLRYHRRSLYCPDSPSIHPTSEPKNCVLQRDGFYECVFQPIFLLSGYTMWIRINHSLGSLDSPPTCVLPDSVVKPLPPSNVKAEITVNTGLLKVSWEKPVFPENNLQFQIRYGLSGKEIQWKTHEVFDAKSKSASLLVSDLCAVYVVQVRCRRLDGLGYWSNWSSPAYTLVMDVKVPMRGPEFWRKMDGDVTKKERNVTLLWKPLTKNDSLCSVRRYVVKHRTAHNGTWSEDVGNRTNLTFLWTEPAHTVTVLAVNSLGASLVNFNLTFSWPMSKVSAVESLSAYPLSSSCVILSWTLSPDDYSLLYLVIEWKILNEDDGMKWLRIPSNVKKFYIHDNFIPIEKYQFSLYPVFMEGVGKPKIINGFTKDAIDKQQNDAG

[2] = biological target: T1, chimera leptin receptor (ObR-Fc); assay: SPR; remark: listed apart in the source

Kd [1]: 0.337 nM
Kd [2]: 0.1 nM
B1: Mouse recombinant leptin (ligand, UniProt P41160 22-167, looked up)
chain: VPIQKVQDDTKTLIKTIVTRINDISHTQSVSAKQRVTGLDFIPGLHPILSLSKMDQTLAVYQQVLTSLPSQNVLQIANDLENLRDLLHLLAFSKSCSLPQTSGLQKPESLDGVLEASLYSTEVVALSRLQGSLQDILQQLDVSPEC

From publication PMC4197010 (Journal of controlled release : official journal of the …, 2014)
